Test results from US7452965B2, “Colon tumor specific binding peptides” (University of Utah Research Foundation, priority 2002, dated 2008).

Key:
HT29 cells [1] = test: Protease assay: RPM phage binding to protease-treated cells; details: 37° C.
Procedure: HT29 cells were incubated at 37° C. with either active or boiled Collagenase diluted 1:20 for 10 minutes, Trypsin-EDTA 0.25% (Gibco) for 5 minutes or Proteinase K (Gibco) diluted 1:600 for 1 minute. After incubation, cells were then incubated with RPM bearing phage as described above. The number of phage remaining bound was quantified by real time PCR.
(§1) In order to further this observation, HT29 cells were treated with active or boiled proteases to determine the effect of treatment on the ability of an RPM displaying phage to bind. HT29 cells were treated with active or boiled collagenase for 15 minutes, trypsin for 5 minutes, or proteinase K for 0.5 minutes at 37° C. After protease treatment, cells were washed, then an equal number of phage were added and allowed to bind. […] The decrease in phage binding to the HT29 cells was due to the protease activity since boiling the proteases abolished the effect with phage binding returning to levels of that observed for PBS treated cells (FIG. 6B). […] After treating HT29 cells with proteases as described above, MTT was added to the cells and incubated for 45 minutes at 37° C. After incubation, the cells were solubilized with 0.1N HCl in isopropanol and the absorbance due to MTT incorporation was determined.

HT29 cells [2] = test: MTT viability of protease-treated cells; type: cell-based; details: MTT 45 minutes at 37° C. after protease treatment
Procedure: as §1

B1: proteinase K: protease used to treat HT29 cells (protein, UniProt P06873 106-384, looked up)
Proteinase K: AAQTNAPWGLARISSTSPGTSTYYYDESAGQGSCVYVIDTGIEASHPEFEGRAQMVKTYYYSSRDGNGHGTHCAGTVGSRTYGVAKKTQLFGVKVLDDNGSGQYSTIIAGMDFVASDKNNRNCPKGVVASLSLGGGYSSSVNSAAARLQSSGVMVAVAAGNNNADARNYSPASEPSVCTVGASDRYDRRSSFSNYGSVLDIFGPGTSILSTWIGGSTRSISGTSMATPHVAGLAAYLMTLGKTTAASACRYIADTANKGDLSNIPFGTVNLLAYNNYQA
In the case of B1, the “decrease of RPM phage binding to active protease treated HT29 cells” value (HT29 cells [1]) is reported as 90% and the “average absorbance (MTT incorporation) of treated cells” value (HT29 cells [2]) is reported as 0.183.
